Source: US20220347304A1 (CYTOKI PHARMA, published 2022)
Changes are numbered by the printed parent chain.

T1: human IL-22 receptor (human IL-22Ra and human IL-10Rb) on cells (human, UniProt Q8N6P7 16-574; Q08334 20-325)
T1 sequence (looked up) 1: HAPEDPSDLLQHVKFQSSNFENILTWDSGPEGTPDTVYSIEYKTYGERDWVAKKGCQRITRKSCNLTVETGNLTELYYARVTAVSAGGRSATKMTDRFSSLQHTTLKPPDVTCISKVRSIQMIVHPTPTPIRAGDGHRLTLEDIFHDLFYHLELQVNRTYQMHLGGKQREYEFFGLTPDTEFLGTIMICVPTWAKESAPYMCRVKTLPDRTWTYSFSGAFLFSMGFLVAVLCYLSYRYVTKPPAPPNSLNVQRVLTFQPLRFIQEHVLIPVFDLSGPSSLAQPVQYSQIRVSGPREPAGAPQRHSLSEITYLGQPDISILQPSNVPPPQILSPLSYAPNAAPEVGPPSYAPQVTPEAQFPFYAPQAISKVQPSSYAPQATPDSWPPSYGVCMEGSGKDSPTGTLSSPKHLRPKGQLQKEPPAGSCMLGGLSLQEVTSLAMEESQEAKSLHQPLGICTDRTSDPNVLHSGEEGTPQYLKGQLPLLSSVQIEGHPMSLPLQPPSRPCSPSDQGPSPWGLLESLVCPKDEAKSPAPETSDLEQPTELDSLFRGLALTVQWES
T1 sequence (looked up) 2: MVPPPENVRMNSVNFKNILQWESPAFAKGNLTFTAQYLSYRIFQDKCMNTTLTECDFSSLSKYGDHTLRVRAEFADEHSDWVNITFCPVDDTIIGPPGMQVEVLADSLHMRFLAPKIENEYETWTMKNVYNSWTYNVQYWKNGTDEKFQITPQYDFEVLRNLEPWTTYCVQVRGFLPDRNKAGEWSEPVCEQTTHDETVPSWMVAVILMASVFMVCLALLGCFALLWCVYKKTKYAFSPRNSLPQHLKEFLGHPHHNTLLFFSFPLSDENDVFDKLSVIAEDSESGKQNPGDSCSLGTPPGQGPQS

B1: Derivative 1 (ligand)
chain: GPGCPISSHCRLDKSNFQQPYITNRTFMLAKEASLADNNTDVRLIGEKLFHGVSMSERCYLMKQVLNFTLEEVLFPQSDRFQPYMQEVVPFLARLSNRLSTCHIEGDDLHIQRNVQKLKDTVKKLGESGEIKAIGELDLLFMSLRNACI
modifications: C18 diacid attached by linker γGlu-OEG-OEG-C2DA-Ac to Cys at site 1C (Cys substituted at position 1 of hIL-22, after the G-P-G N-terminal peptide)
B2: Derivative 3 (ligand)
chain: B1 chain
modifications: C16 diacid attached by linker γGlu-OEG-OEG-C2DA-Ac to Cys at site 1C (Cys substituted at position 1 of hIL-22)
B3: Derivative 4 (ligand)
chain: GPGSGSGSCGSGSGSAPISSHCRLDKSNFQQPYITNRTFMLAKEASLADNNTDVRLIGEKLFHGVSMSERCYLMKQVLNFTLEEVLFPQSDRFQPYMQEVVPFLARLSNRLSTCHIEGDDLHIQRNVQKLKDTVKKLGESGEIKAIGELDLLFMSLRNACI
modifications: C16 diacid attached by linker γGlu-OEG-OEG-C2DA-Ac to Cys at site -7C (in the 15-mer N-terminal peptide)
B4: Derivative 10 (ligand)
chain: B1 chain with N38Q, N67Q
modifications: C16 diacid attached by linker γGlu-OEG-OEG-C2DA-Ac to Cys at site 1C (Cys substituted at position 1 of hIL-22)
B5: Derivative 6 (ligand)
chain: B1 chain with N38Q, N67Q
modifications: C18 diacid attached by linker γGlu-OEG-OEG-C2DA-Ac to Cys at site 1C (Cys substituted at position 1 of hIL-22)
B6: Comparator 5 (ligand)
chain: B1 chain with N38Q, N67Q
B7: Derivative 8 (ligand)
chain: GAPISSCCRLDKSNFQQPYITNRTFMLAKEASLADQNTDVRLIGEKLFHGVSMSERCYLMKQVLQFTLEEVLFPQSDRFQPYMQEVVPFLARLSNRLSTCHIEGDDLHIQRNVQKLKDTVKKLGESGEIKAIGELDLLFMSLRNACI
modifications: C18 diacid attached by linker γGlu-OEG-OEG-C2DA-Ac to Cys at site 6C (Cys substituted at position 6 of hIL-22)
B8: native mature human IL-22 (hIL-22) (ligand)
chain: APISSHCRLDKSNFQQPYITNRTFMLAKEASLADNNTDVRLIGEKLFHGVSMSERCYLMKQVLNFTLEEVLFPQSDRFQPYMQEVVPFLARLSNRLSTCHIEGDDLHIQRNVQKLKDTVKKLGESGEIKAIGELDLLFMSLRNACI
B9: Derivative 9 (ligand)
chain: B8 chain with A33C, N35Q, N64Q
modifications: C18 diacid attached by linker γGlu-OEG-OEG-C2DA-Ac to Cys at site 33C (Cys substituted at position 33 of hIL-22)
B10: Comparator 1 (ligand)
chain: B8 chain with A1G
B11: Derivative 2 (ligand)
chain: B3 chain
modifications: C18 diacid attached by linker γGlu-OEG-OEG-C2DA-Ac to Cys at site -7C (in the 15-mer N-terminal peptide G-P-G-S-G-S-G-S-C-G-S-G-S-G-S, numbered negatively from hIL-22 residue 1)
B12: Comparator 4 (ligand)
chain: B1 chain

target: T1, human IL-22 receptor (human IL-22Ra and …); experiment: cell-based or functional assay

Going from B1 to B2, the “potency in BHK cell reporter gene assay, fold reduction against hIL-22” value falls from 7 fold to 4 fold.

For B1, the “potency in HepG2 pSTAT3 assay, fold reduction against hIL-22” value was 2.5 fold.

target: T1, human IL-22 receptor (human IL-22Ra and …); experiment: cell-based or functional assay; remark: another data set of the same source

First: B3
Second: B4
The “EC50, luciferase reporter gene (STAT3-induced promoter) in BHK cells expressing human IL-22Ra and IL-10Rb” value (“EC50, luciferase reporter gene” below) of the first is 2.1-fold lower: 0.18 nM for the first, 0.37 nM for the second.

B5 and B1 are within 1.5-fold of each other in “EC50, luciferase reporter gene” value: 0.61 nM for the first, 0.48 nM for the second.

Compared with B2, B6 is 1.6-fold lower in “EC50, luciferase reporter gene” value: 0.3 nM for the first, 0.19 nM for the second.

First: B7
Second: B8
The “EC50, luciferase reporter gene” value of the first is 18-fold higher: 1.24 nM for the first, 0.07 nM for the second.

First: B9
Second: B10
The “EC50, luciferase reporter gene” value of the first is 4.7-fold higher: 0.28 nM for the first, 0.06 nM for the second.

target: T1, human IL-22 receptor (human IL-22Ra and …); experiment: cell-based or functional assay; remark: another data set of the same source

Compared with B11, B5 is higher in “EC50, pSTAT3 (AlphaScreen SureFire STAT3 p-Tyr705) in HepG2 cells” value: 6.98 nM for the first, 14.9 nM for the second.

First: B12
Second: B1
The “EC50, pSTAT3 (AlphaScreen SureFire STAT3 p-Tyr705) in HepG2 cells” value of the first is higher: 12.1 nM for the first, 10.1 nM for the second.

First: B8
Second: B10
The “EC50, pSTAT3 (AlphaScreen SureFire STAT3 p-Tyr705) in HepG2 cells” value of the first is lower: 3.88 nM for the first, 4.73 nM for the second.
